Experimental findings from article PMC8964982 are described below.

The assay addresses discoidin domain receptor 1 (DDR1) (human (endogenous in primary human umbilical artery SMCs)) (UniProt Q08345). Nature of the assay: atomic force microscopy.

discoidin domain receptor 1 (DDR1) (human (endogenous in primary human umbilical artery SMCs)), sequence (Q08345 19-913): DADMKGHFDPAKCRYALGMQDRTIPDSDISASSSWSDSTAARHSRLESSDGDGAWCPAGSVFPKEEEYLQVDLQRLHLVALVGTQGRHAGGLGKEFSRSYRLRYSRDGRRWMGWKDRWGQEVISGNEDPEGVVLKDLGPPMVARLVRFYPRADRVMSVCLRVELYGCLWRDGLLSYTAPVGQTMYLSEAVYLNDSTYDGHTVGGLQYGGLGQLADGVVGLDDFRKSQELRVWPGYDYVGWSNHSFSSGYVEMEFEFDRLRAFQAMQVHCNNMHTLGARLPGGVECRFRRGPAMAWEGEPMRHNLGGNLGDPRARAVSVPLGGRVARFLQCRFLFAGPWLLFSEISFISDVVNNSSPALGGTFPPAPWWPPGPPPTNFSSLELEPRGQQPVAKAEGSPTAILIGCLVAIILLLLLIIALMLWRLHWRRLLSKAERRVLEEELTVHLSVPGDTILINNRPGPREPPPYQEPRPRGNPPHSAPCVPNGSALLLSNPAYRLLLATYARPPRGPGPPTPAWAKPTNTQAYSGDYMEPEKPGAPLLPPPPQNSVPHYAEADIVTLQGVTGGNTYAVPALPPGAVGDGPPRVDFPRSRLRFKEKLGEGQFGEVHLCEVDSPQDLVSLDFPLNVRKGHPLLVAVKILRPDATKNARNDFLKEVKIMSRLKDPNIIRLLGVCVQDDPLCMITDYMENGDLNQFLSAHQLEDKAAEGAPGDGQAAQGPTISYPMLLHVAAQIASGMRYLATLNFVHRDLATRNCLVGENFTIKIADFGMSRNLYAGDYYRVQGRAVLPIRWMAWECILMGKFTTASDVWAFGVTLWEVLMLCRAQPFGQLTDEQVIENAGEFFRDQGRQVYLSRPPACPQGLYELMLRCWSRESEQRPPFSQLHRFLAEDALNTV
Collagen type I (Corning), P02454 152-1207; P02466 86-1125 (ligand), sequence (P02454 152-1207): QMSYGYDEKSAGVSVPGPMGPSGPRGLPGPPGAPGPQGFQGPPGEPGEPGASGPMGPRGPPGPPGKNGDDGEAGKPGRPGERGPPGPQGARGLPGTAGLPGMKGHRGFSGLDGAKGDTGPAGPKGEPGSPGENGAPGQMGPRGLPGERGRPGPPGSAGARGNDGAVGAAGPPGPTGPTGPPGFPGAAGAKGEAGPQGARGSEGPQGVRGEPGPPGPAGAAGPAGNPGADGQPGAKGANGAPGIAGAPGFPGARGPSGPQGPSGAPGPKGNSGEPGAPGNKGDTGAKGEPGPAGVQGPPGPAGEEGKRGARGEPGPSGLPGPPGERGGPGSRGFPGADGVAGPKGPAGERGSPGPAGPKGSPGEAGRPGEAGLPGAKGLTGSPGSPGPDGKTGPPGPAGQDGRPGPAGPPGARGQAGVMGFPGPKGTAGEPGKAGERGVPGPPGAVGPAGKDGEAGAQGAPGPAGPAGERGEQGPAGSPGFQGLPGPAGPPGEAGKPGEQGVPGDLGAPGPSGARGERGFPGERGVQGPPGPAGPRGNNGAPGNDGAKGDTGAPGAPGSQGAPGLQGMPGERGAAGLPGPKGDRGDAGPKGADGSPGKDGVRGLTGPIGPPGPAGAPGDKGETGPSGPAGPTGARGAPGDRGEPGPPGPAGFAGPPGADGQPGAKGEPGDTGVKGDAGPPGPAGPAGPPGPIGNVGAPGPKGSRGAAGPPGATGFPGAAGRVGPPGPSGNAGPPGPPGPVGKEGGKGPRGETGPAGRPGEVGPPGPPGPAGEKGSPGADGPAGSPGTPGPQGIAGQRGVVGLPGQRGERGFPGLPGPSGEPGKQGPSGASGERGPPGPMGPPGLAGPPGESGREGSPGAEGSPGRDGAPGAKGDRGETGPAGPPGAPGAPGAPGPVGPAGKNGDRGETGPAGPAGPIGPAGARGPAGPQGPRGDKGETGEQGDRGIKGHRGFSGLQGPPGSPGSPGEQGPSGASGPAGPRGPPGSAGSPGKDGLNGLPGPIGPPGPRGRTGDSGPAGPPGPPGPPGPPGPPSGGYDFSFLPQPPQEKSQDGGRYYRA
Collagen type I (Corning), P02454 152-1207; P02466 86-1125 (ligand), sequence (P02466 86-1125): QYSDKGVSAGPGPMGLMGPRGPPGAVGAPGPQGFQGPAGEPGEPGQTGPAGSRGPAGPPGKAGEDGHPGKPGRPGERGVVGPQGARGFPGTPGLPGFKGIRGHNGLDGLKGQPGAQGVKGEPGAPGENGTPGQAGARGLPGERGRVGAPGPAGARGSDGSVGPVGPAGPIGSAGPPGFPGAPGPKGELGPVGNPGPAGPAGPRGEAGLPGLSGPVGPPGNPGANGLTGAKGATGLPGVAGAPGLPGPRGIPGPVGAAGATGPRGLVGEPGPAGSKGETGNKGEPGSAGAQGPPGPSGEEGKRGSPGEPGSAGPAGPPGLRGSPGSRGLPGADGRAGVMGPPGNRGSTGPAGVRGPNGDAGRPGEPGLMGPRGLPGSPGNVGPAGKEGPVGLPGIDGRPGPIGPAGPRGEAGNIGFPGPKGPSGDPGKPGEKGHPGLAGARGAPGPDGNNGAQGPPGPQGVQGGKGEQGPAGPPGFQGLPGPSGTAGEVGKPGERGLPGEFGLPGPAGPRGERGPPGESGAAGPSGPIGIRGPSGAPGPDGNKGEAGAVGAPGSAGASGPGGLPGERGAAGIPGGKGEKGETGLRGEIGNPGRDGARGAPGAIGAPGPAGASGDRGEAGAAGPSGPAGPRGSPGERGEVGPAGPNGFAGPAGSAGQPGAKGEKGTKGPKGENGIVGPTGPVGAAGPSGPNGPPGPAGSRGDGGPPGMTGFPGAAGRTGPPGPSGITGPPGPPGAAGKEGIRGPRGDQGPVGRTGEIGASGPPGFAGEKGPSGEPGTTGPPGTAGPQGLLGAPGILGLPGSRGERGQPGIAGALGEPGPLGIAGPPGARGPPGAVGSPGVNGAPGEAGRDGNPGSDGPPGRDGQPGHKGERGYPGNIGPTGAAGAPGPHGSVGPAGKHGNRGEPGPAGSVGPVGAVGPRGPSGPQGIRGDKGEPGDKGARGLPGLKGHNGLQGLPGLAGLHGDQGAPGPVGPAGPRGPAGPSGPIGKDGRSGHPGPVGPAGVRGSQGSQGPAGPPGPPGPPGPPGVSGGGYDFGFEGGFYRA

The substance “Collagen type I (Corning), P02454 152-1207; P02466 86-1125 (ligand)” returned an adhesion probability (cells on soft gels) of 18.3% and an adhesion probability (cells on stiff gels) of 32.4%.
